# Laboratory results reported in paper PMC4705439 (Kidney international, 2016).
# T1: Peroxiredoxin 6 (PRDX6), native, human kidney (human (endogenous in human kidney)), P30041
# T1 chain: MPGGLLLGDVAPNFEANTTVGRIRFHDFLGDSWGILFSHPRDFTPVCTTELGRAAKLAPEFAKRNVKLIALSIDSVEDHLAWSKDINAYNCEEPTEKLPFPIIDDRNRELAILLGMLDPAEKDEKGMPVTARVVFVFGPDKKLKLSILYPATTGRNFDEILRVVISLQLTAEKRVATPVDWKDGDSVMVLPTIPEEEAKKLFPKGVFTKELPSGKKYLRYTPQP
# What was measured:
# [1] = target: T1, Peroxiredoxin 6 (PRDX6), native, human …; assay: non-reducing SDS-PAGE with immunoblot; settings: remark: other sources report otherwise
# [2] = target: the molecule itself; assay: non-reducing SDS-PAGE with immunoblot
# [3] = target: the molecule itself; assay: non-reducing SDS-PAGE with Coomassie stain
binder,measurement,setting,value
"Peroxiredoxin 6 (PRDX6), native, human kidney, P30041 1-224 (natural protein) MPGGLLLGDVAPNFEANTTVGRIRFHDFLGDSWGILFSHPRDFTPVCTTELGRAAKLAPEFAKRNVKLIALSIDSVEDHLAWSKDINAYNCEEPTEKLPFPIIDDRNRELAILLGMLDPAEKDEKGMPVTARVVFVFGPDKKLKLSILYPATTGRNFDEILRVVISLQLTAEKRVATPVDWKDGDSVMVLPTIPEEEAKKLFPKGVFTKELPSGKKYLRYTPQP",stoichiometry N,[1],2
"Peroxiredoxin 6 (PRDX6), native, mouse kidney (natural protein, mouse (endogenous in mouse kidney), UniProt O08709 1-224, looked up) MPGGLLLGDEAPNFEANTTIGRIRFHDFLGDSWGILFSHPRDFTPVCTTELGRAAKLAPEFAKRNVKLIALSIDSVEDHLAWSKDINAYNGETPTEKLPFPIIDDKGRDLAILLGMLDPVEKDDNNMPVTARVVFIFGPDKKLKLSILYPATTGRNFDEILRVVDSLQLTGTKPVATPVDWKKGESVMVVPTLSEEEAKQCFPKGVFTKELPSGKKYLRYTPQP",stoichiometry N,[2],2
"N-terminal histidine-tagged PRDX6 with cysteine 47 changed to alanine (HisPRDX6-C47A) (natural protein, UniProt P30041 1-224, looked up) MPGGLLLGDVAPNFEANTTVGRIRFHDFLGDSWGILFSHPRDFTPVATTELGRAAKLAPEFAKRNVKLIALSIDSVEDHLAWSKDINAYNCEEPTEKLPFPIIDDRNRELAILLGMLDPAEKDEKGMPVTARVVFVFGPDKKLKLSILYPATTGRNFDEILRVVISLQLTAEKRVATPVDWKDGDSVMVLPTIPEEEAKKLFPKGVFTKELPSGKKYLRYTPQP",stoichiometry N,[3],2
